We go through one molecule from paper PMC8391295, “Unraveling Human AQP5-PIP Molecular Interaction and Effect on AQP5 Salivary Glands Localization in SS Patients” (Cells, 2021).

In this assay the target is T1, full-length His-tagged AQP5 (human, UniProt P55064 1-265).
T1 construct: aquaporin-5 (AQP5), human, full-length construct with His-tag; also called FL-AQP5; full-length AQP5; source: Pichia pastoris X-33, purified (solubilised in NG, Resource S, Superdex 200)
Briefly: MST; labeled PIP at 42 nM, 1:1 dilution series of AQP5; 20 mM phosphate buffer pH 7.5, 100 mM NaCl, 0.8% NG; Hill equation fit on total monomeric AQP5 concentration; triplicates. The note with it: both partners purified.

T1 sequence (P55064 whole entry): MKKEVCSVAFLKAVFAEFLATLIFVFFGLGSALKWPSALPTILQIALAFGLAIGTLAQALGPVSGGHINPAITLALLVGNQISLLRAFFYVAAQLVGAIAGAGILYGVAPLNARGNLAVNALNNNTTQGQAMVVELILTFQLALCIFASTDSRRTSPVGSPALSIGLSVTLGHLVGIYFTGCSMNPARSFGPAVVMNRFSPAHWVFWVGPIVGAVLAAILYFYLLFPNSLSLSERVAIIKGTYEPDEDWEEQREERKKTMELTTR

B1: mature C-terminal His-tag PIP (prolactin-inducible protein, residues 29-146) (natural protein, human, UniProt P12273 29-146, looked up)
chain: QDNTRKIIIKNFDIPKSVRPNDEVTAVLAVQTELKECMVVKTYLISSIPLQGAFNYKYTACLCDDNPKTFYWDFYTNRTVQIAAVVDVIRELGICPDDAAVIPIKNNRFYTIEILKVE
modifications: non homogeneously glycosylated; labeled with an amine-reactive dye (Monolith NT Protein RED-NHS Labeling Kit) in the MST experiments
notes: also called recombinant PIP; purified PIP; source: Pichia pastoris, secreted into the media, purified (HisTrap HP, Superdex 200); not shown: His6 (thrombin-cleavable), C-terminal, kept
B1 registered a Kd of 0.57 µM.
